Measurements: patent publication US20250163127A1

The substances below were run against T1, CD226 (human) (UniProt Q15762) (assay: flow cytometry, transfected HEK293 cells).
T1 sequence: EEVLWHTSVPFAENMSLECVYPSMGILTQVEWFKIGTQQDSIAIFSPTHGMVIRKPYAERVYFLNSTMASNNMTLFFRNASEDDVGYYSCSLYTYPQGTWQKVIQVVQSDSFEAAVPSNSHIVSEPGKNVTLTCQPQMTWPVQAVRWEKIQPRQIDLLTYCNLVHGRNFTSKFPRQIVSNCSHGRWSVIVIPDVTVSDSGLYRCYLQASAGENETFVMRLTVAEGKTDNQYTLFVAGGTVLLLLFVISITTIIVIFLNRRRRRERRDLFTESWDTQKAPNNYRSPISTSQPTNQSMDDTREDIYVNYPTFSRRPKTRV

Row | Substance | MFI at 100 nM
1 | variant CD155 IgV-Fc, S42G, S52Q, L104E, G111R (Fc fusion) | 2020
2 | variant CD155 IgV-Fc, S42L, S52L, Q62F, L104Q (Fc fusion) | 2640
3 | variant CD155 IgV-Fc, S42N, L104Q, G111R (Fc fusion) | 2310
4 | variant CD155 IgV-Fc, S42N, S52Q, Q62F (Fc fusion) | 2150
5 | variant CD155 IgV-Fc, S42Q (Fc fusion) | 2230
6 | variant CD155 IgV-Fc, S42W (Fc fusion) | 2130
7 | variant CD155 IgV-Fc, S42W, S52Q, V57L, Q62Y (Fc fusion) | 2140
8 | variant CD155 IgV-Fc, S52E (Fc fusion) | 2600
9 | variant CD155 IgV-Fc, S52L (Fc fusion) | 2680
10 | variant CD155 IgV-Fc, S52M (Fc fusion) | 1900
11 | variant CD155 IgV-Fc, S52M, L104Q (Fc fusion) | 2250
12 | variant CD155 IgV-Fc, S52M, V57L (Fc fusion) | 2430
13 | variant CD155 IgV-Fc, S52R (Fc fusion) | 3960
14 | variant CD155 IgV-Fc, S52R, Q62F, L104Q, G111R (Fc fusion) | 3170
15 | variant CD155 IgV-Fc, S52W, L104E (Fc fusion) | 1910
16 | variant CD155 IgV-Fc, T45Q, S52L, L104E, G111R (Fc fusion) | 2390
17 | variant CD155 IgV-Fc, T45Q, S52L, V57L, L104E (Fc fusion) | 5940
18 | variant CD155 IgV-Fc, T45Q, S52Q (Fc fusion) | 5790

These substances were tested against T2, CD96 (human) (UniProt P40200) (assay: flow cytometry, transfected HEK293 cells).
T2 sequence: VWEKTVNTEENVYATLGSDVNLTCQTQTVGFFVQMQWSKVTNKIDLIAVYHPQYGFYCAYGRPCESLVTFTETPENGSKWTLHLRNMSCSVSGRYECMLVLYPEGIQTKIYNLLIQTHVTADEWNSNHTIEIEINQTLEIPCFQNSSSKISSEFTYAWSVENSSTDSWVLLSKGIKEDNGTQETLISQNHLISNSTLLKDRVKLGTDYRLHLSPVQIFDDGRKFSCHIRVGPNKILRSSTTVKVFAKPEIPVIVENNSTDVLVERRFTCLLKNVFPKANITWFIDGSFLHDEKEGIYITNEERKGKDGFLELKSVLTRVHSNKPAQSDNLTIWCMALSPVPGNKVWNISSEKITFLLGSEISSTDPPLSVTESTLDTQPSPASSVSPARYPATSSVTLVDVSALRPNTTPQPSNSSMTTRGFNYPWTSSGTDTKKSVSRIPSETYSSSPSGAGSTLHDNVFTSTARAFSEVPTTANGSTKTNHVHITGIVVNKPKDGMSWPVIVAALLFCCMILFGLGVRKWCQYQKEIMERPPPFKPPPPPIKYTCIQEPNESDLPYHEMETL

Row | Substance | MFI at 100 nM
19 | variant CD155 IgV-Fc, P18L, E37S, Q62M, G80S, A81P, G99Y, S112N (Fc fusion) | 3340
20 | variant CD155 IgV-Fc, S42L, S52L, Q62F, L104Q (Fc fusion) | 2320
21 | variant CD155 IgV-Fc, S42N, L104Q, G111R (Fc fusion) | 1960
22 | variant CD155 IgV-Fc, S42N, S52Q, Q62F (Fc fusion) | 1740
23 | variant CD155 IgV-Fc, S42Q (Fc fusion) | 2140
24 | variant CD155 IgV-Fc, S42W (Fc fusion) | 2560
25 | variant CD155 IgV-Fc, S42W, S52Q, V57L, Q62Y (Fc fusion) | 1700
26 | variant CD155 IgV-Fc, S52E (Fc fusion) | 1800
27 | variant CD155 IgV-Fc, S52M (Fc fusion) | 1610
28 | variant CD155 IgV-Fc, S52M, L104Q (Fc fusion) | 1630
29 | variant CD155 IgV-Fc, S52M, V57L (Fc fusion) | 1860
30 | variant CD155 IgV-Fc, S52R (Fc fusion) | 4850
31 | variant CD155 IgV-Fc, S52R, Q62F, L104Q, G111R (Fc fusion) | 2360
32 | variant CD155 IgV-Fc, S52W, L104E (Fc fusion) | 1630
33 | variant CD155 IgV-Fc, T45Q, S52L, L104E, G111R (Fc fusion) | 1580
34 | variant CD155 IgV-Fc, T45Q, S52L, V57L, L104E (Fc fusion) | 1530
35 | variant CD155 IgV-Fc, T45Q, S52Q (Fc fusion) | 2450

These substances were tested against T3, TIGIT (human) (UniProt Q495A1) (assay: flow cytometry, transfected HEK293 cells).
T3 sequence: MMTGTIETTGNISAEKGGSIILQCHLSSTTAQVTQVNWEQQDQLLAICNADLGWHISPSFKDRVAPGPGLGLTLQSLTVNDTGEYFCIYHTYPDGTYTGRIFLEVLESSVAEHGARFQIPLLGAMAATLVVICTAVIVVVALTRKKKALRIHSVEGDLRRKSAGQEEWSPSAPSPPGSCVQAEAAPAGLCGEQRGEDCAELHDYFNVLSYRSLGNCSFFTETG

Row | Substance | MFI at 25 nM [MFI] | MFI at 100 nM
36 | CD155 variant IgV-Fc P18S, H59N, V75A, L79P, A81T, F91S, L104M, T107M (Fc fusion) | 800 | –
37 | CD155 variant IgV-Fc V9L, V11M, P18S, N35S, S54G, Q62K, L79P, L104M, T107M, V115M (Fc fusion) | 3000 | –
38 | variant CD155 IgV-Fc, A13R, D23Y, E37P, S42P, Q62Y, A81E (Fc fusion) | – | 4160
39 | variant CD155 IgV-Fc, P18S, V41A, S42G, T45G, L104N (Fc fusion) | – | 3820
40 | variant CD155 IgV-Fc, S42N, L104Q, G111R (Fc fusion) | – | 2430
41 | variant CD155 IgV-Fc, S42N, S52Q, Q62F (Fc fusion) | – | 2400
42 | variant CD155 IgV-Fc, S42W (Fc fusion) | – | 2430
43 | variant CD155 IgV-Fc, S52E (Fc fusion) | – | 2660
44 | variant CD155 IgV-Fc, S52L (Fc fusion) | – | 2220
45 | variant CD155 IgV-Fc, S52M, L104Q (Fc fusion) | – | 2670
46 | variant CD155 IgV-Fc, S52R (Fc fusion) | – | 4400
47 | variant CD155 IgV-Fc, S52R, Q62F, L104Q, G111R (Fc fusion) | – | 2970
48 | variant CD155 IgV-Fc, T45Q, S52L, L104E, G111R (Fc fusion) | – | 2290
49 | variant CD155 IgV-Fc, T45Q, S52L, V57L, L104E (Fc fusion) | – | 2860
50 | variant CD155 IgV-Fc, T45Q, S52Q (Fc fusion) | – | 4810

These substances were tested against PD-L1 (human) (assay: flow cytometry, CHO cells expressing PD-L1).
PD-L1 (human), sequence (chain, as listed by the source): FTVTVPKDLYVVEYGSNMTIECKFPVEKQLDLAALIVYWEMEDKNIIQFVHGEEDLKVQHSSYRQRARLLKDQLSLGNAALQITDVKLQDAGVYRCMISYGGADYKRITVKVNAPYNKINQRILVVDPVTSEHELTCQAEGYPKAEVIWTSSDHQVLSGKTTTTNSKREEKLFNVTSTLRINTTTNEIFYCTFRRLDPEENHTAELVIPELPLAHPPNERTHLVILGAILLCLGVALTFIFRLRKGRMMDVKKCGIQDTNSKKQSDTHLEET

Row | Substance | MFI at 33.3 nM [MFI]
51 | variant CD80 E35D/D46E/M47V/A71D (Fc fusion) | 549
52 | variant CD80 E35D/D46V/M47L/V68M/L85Q/E88D (Fc fusion) | 137000
53 | variant CD80 E35D/K37E/M47V/N48D/L85Q/D90N (Fc fusion) | 26500
54 | variant CD80 E35D/M38T/D46E/M47V/N48S (Fc fusion) | 19400
